Assay results published in publication PMC4127255.

What was measured:
[1] = biological target: acetylcholine-binding protein from Aplysia californica (Ac-AChBP) (Aplysia californica); assay: non-reduced SDS-PAGE
[2] = biological target: acetylcholine-binding protein from Aplysia californica (Ac-AChBP) (Aplysia californica); assay: SEC; […]; 50 mM NaCl, 50 mM Tris pH 8.0, 0.5 mL/min, […]

- stoichiometry N [1]: 5
- stoichiometry N [2]: 5
Substance: acetylcholine-binding protein from Aplysia californica (Ac-AChBP) (natural protein)
